Data on three substances can be found in patent publication US20020147999A1.

Common to all, as to assay: cell-based or functional assay
Experiment [1] deals with p-NF-H (phosphorylated neurofilament protein of high molecular weight), mouse, endogenous in Neuro-2a cells (mouse) (UniProt P19246).
Experiment [2] has as its target p-tau (phosphorylated microtubule-associated protein tau), mouse, endogenous in Neuro-2a cells and mouse brain (mouse) (UniProt P10637).
The target in experiment [3] is apoE cleavage enzyme (chymotrypsin-like serine protease; in mouse brain lysate or roughly/partially purified).

p-tau (phosphorylated microtubule-associated protein tau), mouse, endogenous in Neuro-2a cells and mouse brain (mouse), sequence (P10637 other isoform, or with tags, fused parts or gaps limits assumed): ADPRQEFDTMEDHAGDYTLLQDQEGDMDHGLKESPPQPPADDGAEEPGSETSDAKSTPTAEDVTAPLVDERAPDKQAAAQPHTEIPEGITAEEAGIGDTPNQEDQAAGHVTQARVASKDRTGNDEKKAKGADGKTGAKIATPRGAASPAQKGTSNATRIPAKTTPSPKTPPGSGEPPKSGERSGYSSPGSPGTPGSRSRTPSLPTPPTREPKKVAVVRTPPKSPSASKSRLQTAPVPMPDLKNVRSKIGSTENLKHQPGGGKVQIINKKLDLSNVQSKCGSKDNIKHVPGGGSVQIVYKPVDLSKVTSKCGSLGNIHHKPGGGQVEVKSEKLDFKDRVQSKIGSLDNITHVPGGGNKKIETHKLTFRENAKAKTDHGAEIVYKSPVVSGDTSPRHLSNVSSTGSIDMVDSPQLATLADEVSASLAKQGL
p-NF-H (phosphorylated neurofilament protein of high molecular weight), mouse, endogenous in Neuro-2a cells (mouse), sequence (P19246 whole entry): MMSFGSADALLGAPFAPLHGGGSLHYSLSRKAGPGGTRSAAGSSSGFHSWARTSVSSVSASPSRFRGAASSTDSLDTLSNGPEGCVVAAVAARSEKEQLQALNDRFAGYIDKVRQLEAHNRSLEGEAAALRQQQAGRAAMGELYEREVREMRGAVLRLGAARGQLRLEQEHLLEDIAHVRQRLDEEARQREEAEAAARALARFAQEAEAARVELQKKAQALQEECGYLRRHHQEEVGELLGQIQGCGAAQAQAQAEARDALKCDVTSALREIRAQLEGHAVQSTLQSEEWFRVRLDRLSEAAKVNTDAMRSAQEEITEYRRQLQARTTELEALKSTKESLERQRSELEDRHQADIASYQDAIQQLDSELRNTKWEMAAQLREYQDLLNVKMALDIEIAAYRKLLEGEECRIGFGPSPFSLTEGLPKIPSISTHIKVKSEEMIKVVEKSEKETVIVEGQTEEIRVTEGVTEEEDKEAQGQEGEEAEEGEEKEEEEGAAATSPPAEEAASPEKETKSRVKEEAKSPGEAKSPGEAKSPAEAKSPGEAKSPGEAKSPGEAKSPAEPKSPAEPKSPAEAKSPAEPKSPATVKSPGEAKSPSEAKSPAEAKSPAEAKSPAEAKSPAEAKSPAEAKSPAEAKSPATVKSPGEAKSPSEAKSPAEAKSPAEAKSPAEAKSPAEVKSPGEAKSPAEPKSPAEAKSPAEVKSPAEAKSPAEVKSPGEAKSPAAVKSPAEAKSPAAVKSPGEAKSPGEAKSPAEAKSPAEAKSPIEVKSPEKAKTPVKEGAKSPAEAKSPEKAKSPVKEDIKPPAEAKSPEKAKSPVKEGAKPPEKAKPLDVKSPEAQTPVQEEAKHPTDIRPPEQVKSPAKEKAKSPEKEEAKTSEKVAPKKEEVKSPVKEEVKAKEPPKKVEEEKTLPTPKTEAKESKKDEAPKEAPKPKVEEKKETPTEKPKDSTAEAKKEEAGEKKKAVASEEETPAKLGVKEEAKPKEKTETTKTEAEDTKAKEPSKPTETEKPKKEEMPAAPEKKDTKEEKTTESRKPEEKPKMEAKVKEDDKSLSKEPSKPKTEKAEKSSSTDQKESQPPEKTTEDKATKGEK

For “apoE4(Δ272-299), expressed in transfected cells (pFLAG-CMV-3 vector, secretory pathway, N-terminal FLAG) (from UniProt P02649 19-289)”, the transfected cells displaying the intracellular filamentous inclusions in experiment [1] and in experiment [2] was 78% each time.
With “apoE3(Δ272-299), expressed in transfected cells (pFLAG-CMV-3 vector, secretory pathway, N-terminal FLAG) (from UniProt P02649 19-289)”, the transfected cells displaying the intracellular filamentous inclusions in experiment [1] and in experiment [2] was 32% each time.
Substance “purified human apoE4 (full-length) (from UniProt P02649 19-317)” yielded an inhibition of apoE cleavage enzyme activity (chromogenic assay, 1 mM Ala-Ala-Pro-Phe-p-nitroanilide; 7 µM apoE4) in experiment [3] of 89%.
